From PMC3861474 (PLoS ONE, 2013)

Experiments:
NAGK‑FL25‑C + PII-ST‑V = molecular target: T1, NAGK‑FL25‑C + PII-ST‑V (Synechococcus elongatus, UniProt P0A3F4); test: FRET dissociation of PII - NAGK complex, […] nm ratio; type: binding; conditions: 0.1 mM ATP, 20 mM MgCl2, pH 7.5, 100 nM proteins, 30 min; competitive with ATP; a ratio, not a concentration
T1 construct: gene glnB; same FRET complex as P6 (Cerulean on NAGK C-terminus, Strep-tag and Venus on PII C-terminus), E. coli; compound site on PII; with Acetylglutamate kinase
T1 sequence (P0A3F4 whole entry): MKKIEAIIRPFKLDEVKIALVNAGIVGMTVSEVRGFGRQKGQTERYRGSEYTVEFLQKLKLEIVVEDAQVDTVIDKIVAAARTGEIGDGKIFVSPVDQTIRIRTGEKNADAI
T1 sequence (Q6V1L5 whole entry partner): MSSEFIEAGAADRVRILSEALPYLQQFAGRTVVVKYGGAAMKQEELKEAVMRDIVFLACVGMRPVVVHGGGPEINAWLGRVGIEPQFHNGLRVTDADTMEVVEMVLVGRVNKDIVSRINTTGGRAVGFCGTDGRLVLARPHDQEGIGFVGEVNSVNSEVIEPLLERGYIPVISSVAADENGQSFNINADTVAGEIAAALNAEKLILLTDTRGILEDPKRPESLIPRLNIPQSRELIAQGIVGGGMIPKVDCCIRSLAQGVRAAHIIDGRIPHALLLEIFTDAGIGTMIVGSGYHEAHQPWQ

[1] = molecular target: NAGK‑FL25‑C (NAGK fused by a flexible 25-residue linker to Cerulean) (Synechococcus elongatus) (UniProt Q6V1L5)
Sequence of NAGK‑FL25‑C (NAGK fused by a flexible 25-residue linker to Cerulean) (Synechococcus elongatus) (Q6V1L5 whole entry, the tested form may be a part): as the sequence (Q6V1L5 whole entry partner) above

[2] = molecular target: N-acetyl-L-glutamate kinase (NAGK), His-tagged wild type (Synechococcus elongatus) (UniProt Q6V1L5)
Sequence of N-acetyl-L-glutamate kinase (NAGK), His-tagged wild type (Synechococcus elongatus) (Q6V1L5 whole entry, the tested form may be a part): as the sequence (Q6V1L5 whole entry partner) above

[3] = molecular target: N-acetyl-L-glutamate kinase (NAGK), His-tagged wild type (Synechococcus elongatus) (UniProt Q6V1L5); remark: listed apart in the source
[4] = molecular target: NAGK‑FL25‑C (NAGK fused by a flexible 25-residue linker to Cerulean) (Synechococcus elongatus) (UniProt Q6V1L5); test: FRET or BRET; association kinetics: FRET ratio (525 nm / 475 nm emission) every 8 s, excitation 433 nm; NAGK-FL25-C preincubated at 37 °C, then PII-Venus variant added; 100 nM proteins; 0.1 mM ATP; ratio not background-subtracted (0.54 is the zero baseline)
[5] = molecular target: NAGK‑FL25‑C (NAGK fused by a flexible 25-residue linker to Cerulean) (Synechococcus elongatus) (UniProt Q6V1L5); remark: listed apart in the source
[6] = molecular target: NAGK‑FL25‑C (NAGK fused by a flexible 25-residue linker to Cerulean) (Synechococcus elongatus) (UniProt Q6V1L5); test: FRET or BRET; FRET ratio of NAGK-FL25-C + PII-ST-V after addition of 2-OG (0.8 and 1.6 mM, the highest concentrations); 0.1 mM ATP; background subtracted and normalised
[7] = molecular target: NAGK‑FL25‑C (NAGK fused by a flexible 25-residue linker to Cerulean) (Synechococcus elongatus) (UniProt Q6V1L5); test: FRET or BRET; FRET ratio of NAGK-FL25-C + PII-ST-V with ADP 0.25 to 8 mM and 0.1 mM ATP (ADP/ATP ratio about 80 for the maximal drop); background subtracted and normalised

Row | Compound | IC50 (ADP/ATP ratio) (NAGK‑FL25‑C + PII-ST‑V) | Kcat of NAGK activity in the presence of PII (NAGK-FL25-C alone 41.36 s^-1) [1] [s⁻¹] | Kcat/Km of NAGK activity in the presence of PII (NAGK-FL25-C alone 1.4E+04) [1] [M⁻¹ s⁻¹] | Kcat of NAGK activity in the presence of PII (coupled NADH oxidation assay; NAGK-wt alone 38.8 s^-1) [2] [s⁻¹] | Kcat/Km of NAGK activity in the presence of PII (NAGK-wt alone 1.2E+04) [2] [M⁻¹ s⁻¹] | relief of NAGK from arginine inhibition by PII: fold increase of the IC50 of arginine in the enzyme assay [3] [times] | maximum FRET ratio (525 nm / 475 nm; zero baseline 0.54) [4] | partial relief of NAGK from arginine inhibition by PII: fold increase of the IC50 of arginine in the enzyme assay [5] [times] | Kcat of NAGK activity in the presence of PII (NAGK-wt alone 38.8 s^-1) [2] [s⁻¹] | steady state FRET level above background with 0.8 and 1.6 mM 2-OG [6] [%] | FRET level above baseline at the maximal drop (ADP/ATP ratio of about 80) [7] [%]
1 | Nc1ncnc2c1ncn2[C@@H]1O[C@H](COP(=O)(O)OP(=O)(O)O)[C@@H](O)[C@H]1O [ADP] | ~ 10 ADP/ATP ratio |  |  |  |  |  |  |  |  |  | 
2 | PII signal transduction protein, wild type (from UniProt P0A3F4 1-112) (natural protein) |  | 128 | 240000 | 119 | 180000 | 25 |  |  |  |  | 
3 | PII-E85A‑ST‑V (PII E85A, Strep-tag as linker, Venus) (from UniProt P0A3F4 1-112) (natural protein) |  |  |  |  |  |  | 0.6 |  |  |  | 
4 | PII-S49G‑ST‑V (PII S49G, Strep-tag as linker, Venus) (from UniProt P0A3F4 1-112) (natural protein) |  | 99.6 | 250000 |  | 190000 |  | 0.8 | 8.5 | 96.8 |  | 
5 | PII-ST‑V (PII, Strep-tag as linker, Venus) (from UniProt P0A3F4 1-112) (natural protein) |  | 134 | 210000 |  | 180000 |  | 1.35 |  | 123 | 10 | 10
